Measured values taken from PMC5423696.

Molecular target: LAMP1_(distal)-Fc (human)
Test: SPR

“GP1_(LASV)-Fc (from UniProt P08669 75-237) (Fc fusion)” was tested, and the Kd was 15 nM.
